Patent publication US20220195007A1

Biological target: CD20 polypeptide (safety switch) expressed on transduced T cells (human) (UniProt P11836)
Assay: cell-based or functional assay

Chain of UniProt P11836 (P11836 whole entry): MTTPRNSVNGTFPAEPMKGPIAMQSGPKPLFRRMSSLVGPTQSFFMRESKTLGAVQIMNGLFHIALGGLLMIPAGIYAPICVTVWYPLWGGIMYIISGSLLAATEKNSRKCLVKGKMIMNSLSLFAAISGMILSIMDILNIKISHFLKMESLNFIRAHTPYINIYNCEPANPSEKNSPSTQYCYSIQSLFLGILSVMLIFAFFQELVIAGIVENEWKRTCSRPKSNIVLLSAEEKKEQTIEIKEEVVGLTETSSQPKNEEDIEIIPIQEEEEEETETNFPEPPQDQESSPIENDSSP

Rituximab (Rituxan®, Biogen) (antibody)
4-hour chromium release assay on IL13Rα2-CAR^CD20 T cells: 70% | decrease in CD20+ cell number by flow cytometry after 1 hour (rituximab + complement vs rituximab alone): > 30% | killing of CD123-CAR T cells by rituximab and complement: 80%
